From patent US20060239966A1 come the findings set out here.

In test [1] the target is GFRα2/Fc fusion protein (R&D Systems). The experiment in a line: GFRα2 ELISA: GFRα2/Fc on anti-human Fc plate, Ret-AP detection; conditioned medium of transfected HiB5 cells. A general note: In an ELISA, binding on a coated surface is turned into a signal by an enzyme label.
The target is the same in test [2]. The test can be described thus: GFRα2 ELISA: GFRα2/Fc on anti-human Fc plate, Ret-AP detection; conditioned medium of transfected CHO cells.
Test [3] shares this target. The test can be described thus: GFRα2 ELISA: GFRα2/Fc on anti-human Fc plate, Ret-AP detection; conditioned medium of transfected HEK293 cells.
For test [4] the target is unchanged. The test can be described thus: GFRα2 ELISA: GFRα2/Fc on anti-human Fc plate, Ret-AP detection; conditioned medium of transfected ARPE-19 cells.

B1: Neurturin secreted from cells transfected with the dpro-NTN construct (wt NTN signal peptide fused to human mature NTN, no pro-region) (ligand)
chain: ARLGARPCGLRELEVRVSELGLGYASDETVLFRYCAGACEAAARVYDLGLRRLRQRRRLRRERVRAQPCCRPTAYEDEVSFLDAHSRYHTVHELSARECACV
B1: the fold higher GFRα2 binding activity of conditioned medium (wt construct set to 1) is 7.5 fold in test [1], 4.1 fold in test [2], 90 fold in test [3] and 117 fold in test [4].

B2: Neurturin secreted from cells transfected with the IgSP-NTN construct (mouse immunoglobulin heavy chain signal peptide fused to human mature NTN) (ligand)
chain: B1 chain
For B2, the fold higher GFRα2 binding activity of conditioned medium (wt construct set to 1) in test [1] amounted to 162 fold; in test [2], 66 fold; in test [3], 278 fold; in test [4] it was 771 fold.
